Laboratory results taken from the RNAGym collection of RNA variant scans (doi:10.7554/elife.80360).

B1: Hairpin Ribozyme (parent)
chain: GUCCUCUUUCACGUGCGCGUGAAAGAGAGAAGUGAACCAGAGAAACACACGUUGUGGUAUAUUACCUGGUA

Variants of: B1
Assay: self-cleavage, relative activity (ratio to wild type); higher = more cleavage; co-transcriptional

| Variant | self-cleavage |
| --- | --- |
| C46A C48A | 0.127 |
| C46A C48G | 0.211 |
| C46A C48U | 0.138 |
| C46A C50A | 0.117 |
| C46A C50G | 0.159 |
| C46A C65U | 0.259 |
| C46A C66A | 0.0901 |
| C46A C66G | 0.14 |
| C46A C66U | 0.15 |
| C46A G56C | 0.122 |
| C46A G57A | 0.177 |
| C46A G68U | 0.137 |
| C46A G69C | 0.0874 |
| C46A G69U | 0.171 |
| C46A U52C | 0.271 |
| C46A U52G | 0.119 |
| C46A U53A | 0.139 |
| C46A U53C | 0.148 |
| C46A U53G | 0.159 |
| C46A U55A | 0.204 |
| C46A U58C | 0.206 |
| C46A U60G | 0.102 |
| C46A U62C | 0.193 |
| C46A U63G | 0.092 |

| Variant | self-cleavage |
| --- | --- |
| C46A U67C | 0.11 |
| C46A U67G | 0.142 |
| C46A U70A | 0.205 |
| C46A U70C | 0.026 |
| C46A U70G | 0.0934 |
| C46G A47U | 0.136 |
| C46G A49U | 0.0713 |
| C46G A59C | 0.219 |
| C46G A59G | 0.185 |
| C46G A64C | 0.152 |
| C46G A64G | 0.144 |
| C46G A64U | 0.185 |
| C46G A71U | 0.211 |
| C46G C48G | 0.0704 |
| C46G C65G | 0.078 |
| C46G G56A | 0.127 |
| C46G G56C | 0.123 |
| C46G G56U | 0.173 |
| C46G G57A | 0.0965 |
| C46G G57C | 0.0539 |
| C46G G69U | 0.105 |
| C46G U55C | 0.151 |
| C46G U62C | 0.249 |
| C46G U62G | 0.14 |

| Variant | self-cleavage |
| --- | --- |
| C46G U67A | 0.094 |
| C46U A59G | 0.112 |
| C46U A59U | 0.149 |
| C46U A61U | 0.267 |
| C46U A64U | 0.198 |
| C46U A71U | 0.121 |
| C46U C65A | 0.184 |
| C46U G54C | 0.149 |
| C46U G56U | 0.0878 |
| C46U G57A | 0.186 |
| C46U G57C | 0.0631 |
| C46U G57U | 0.234 |
| C46U G68C | 0.123 |
| C46U G69A | 0.123 |
| C46U G69U | 0.172 |
| C46U U52G | 0.197 |
| C46U U58G | 0.0629 |
| C46U U60G | 0.223 |
| C46U U62A | 0.148 |
| C46U U67A | 0.0755 |
| C46U U67C | 0.11 |
| C46U U70A | 0.255 |
| C46U U70G | 0.189 |
| A47C | 0.335 |

| Variant | self-cleavage |
| --- | --- |
| A47C A49U | 0.171 |
| A47C A59C | 0.19 |
| A47C A59U | 0.112 |
| A47C A61C | 0.152 |
| A47C A64C | 0.233 |
| A47C A64G | 0.265 |
| A47C A71G | 0.344 |
| A47C A71U | 0.147 |
| A47C C50U | 0.303 |
| A47C C65U | 0.219 |
| A47C C66G | 0.17 |
| A47C C66U | 0.155 |
| A47C G54A | 0.208 |
| A47C G56A | 0.233 |
| A47C G57C | 0.0853 |
| A47C G57U | 0.275 |
| A47C G68A | 0.268 |
| A47C G68C | 0.195 |
| A47C G69C | 0.196 |
| A47C U52C | 0.376 |
| A47C U52G | 0.231 |
| A47C U55G | 0.136 |
| A47C U58A | 0.316 |
| A47C U60A | 0.219 |

| Variant | self-cleavage |
| --- | --- |
| A47C U60G | 0.324 |
| A47C U62C | 0.187 |
| A47C U70C | 0.298 |
| A47G | 0.162 |
| A47G A49C | 0.307 |
| A47G A49G | 0.129 |
| A47G A64U | 0.167 |
| A47G A71C | 0.599 |
| A47G A71U | 0.221 |
| A47G C48U | 0.185 |
| A47G C50U | 0.101 |
| A47G C65A | 0.0744 |
| A47G C66U | 0.239 |
| A47G G51A | 0.15 |
| A47G G54U | 0.163 |
| A47G G56U | 0.169 |
| A47G G57U | 0.179 |
| A47G G68C | 0.143 |
| A47G G68U | 0.104 |
| A47G G69A | 0.0811 |
| A47G U52A | 0.0547 |
| A47G U53A | 0.176 |
| A47G U53C | 0 |
| A47G U58A | 0.221 |

| Variant | self-cleavage |
| --- | --- |
| A47G U67A | 0.136 |
| A47G U67C | 0.129 |
| A47G U70C | 0.1 |
| A47G U70G | 0.115 |
| A47U | 0.154 |
| A47U A49G | 0.161 |
| A47U A59U | 0.194 |
| A47U A61C | 0.243 |
| A47U A61G | 0.147 |
| A47U A71C | 0.304 |
| A47U C48A | 0.157 |
| A47U C48U | 0.112 |
| A47U G56A | 0.187 |
| A47U G56C | 0.125 |
| A47U G57C | 0.157 |
| A47U U53G | 0.108 |
| A47U U58C | 0.133 |
| A47U U58G | 0.137 |
| A47U U62G | 0.158 |
| A47U U63A | 0.114 |
| A47U U63G | 0.0673 |
| A47U U67C | 0.0849 |
| A47U U67G | 0.185 |
| A47U U70C | 0.0521 |

| Variant | self-cleavage |
| --- | --- |
| C48A A59C | 0.139 |
| C48A A59G | 0.219 |
| C48A A59U | 0.121 |
| C48A A61C | 0.201 |
| C48A A64U | 0.0412 |
| C48A C50A | 0.188 |
| C48A C50U | 0.131 |
| C48A C66G | 0.245 |
| C48A C66U | 0.202 |
| C48A G57U | 0.115 |
| C48A G69A | 0.173 |
| C48A G69U | 0.121 |
| C48A U52A | 0.233 |
| C48A U53C | 0.18 |
| C48A U55A | 0.228 |
| C48A U55G | 0.251 |
| C48A U60C | 0.208 |
| C48A U62C | 0.207 |
| C48A U70A | 0.209 |
| C48A U70G | 0.144 |
| C48G A49C | 0.223 |
| C48G A59G | 0.129 |
| C48G A61C | 0.0868 |
